Experimental findings from patent US20210275657A1 (BIONTECH US, published 2021) are described below.

Usually IC50 stands for the concentration needed to halve the response being measured. One may read the half-life as the time needed for the level to fall by half in the phase considered. A lower half-life goes with fast loss.

For one assay, the target named is T1, HLA-A24:02 (human).
T1 construct: Construct not described
Kind of assay: peptide-HLA affinity, Example 9.
With MFLKAESKI, the “Observed MHC affinity” value was 332 nM.

For another assay, the target named is T2, HLA-B07:02 (human).
T2 construct: Stability assay: E. coli-expressed biotinylated heavy chain with 125I-labelled b2m; MS: BAP-tagged HLA in HEK293T cells; Treated as one molecule
Put plainly: peptide-HLA affinity, Example 9.
Consider QPVLWTTPPL, for which the “Observed MHC affinity” value was 109 nM.

KPKRDGYMF: the “Observed MHC affinity” value stood at 28 nM.

As to GPPARVPAV, the “Observed MHC affinity” value came out at 221 nM.

KPKRDGYMFL: the “Observed MHC affinity” value was 98 nM.

As for FATLQRSSL, the “Observed MHC affinity” value is 14 nM.

In a further assay the target is T3, HLA-A03:01 (human).
T3 construct: Construct not described
Put plainly: peptide-HLA affinity, Example 9.
On to KIMFATLQR, for which the “Observed MHC affinity” value was determined as 3 nM.

As for YMFLKAESK, the “Observed MHC affinity” value was found to be 80 nM.

As to VLWTTPPLQH, the “Observed MHC affinity” value stood at 16 nM.

For the next assay, the target named is T4, HLA-A11:01 (human).
T4 construct: Construct not described
Put plainly: peptide-HLA affinity, Example 9.
For KIMFATLQR, the “Observed MHC affinity” value was found to be 23 nM.

As for YMFLKAESK, the “Observed MHC affinity” value turned out to be 1730 nM.

With VLWTTPPLQH, the “Observed MHC affinity” value was found to be 4540 nM.

Another assay concerns the target T5, HLA-A02:01 (human).
T5 construct: Stability assay: E. coli-expressed biotinylated heavy chain with 125I-labelled b2m
Kind of assay: peptide-HLA affinity, Example 9.
As to VLPEPHLAL, the “Observed MHC affinity” value came out at 16 nM.

Consider TLQRSSLWCL, for which the “Observed MHC affinity” value was found to be 118 nM.

With AIQPVLWTT, the “Observed MHC affinity” value turned out to be 8 nM.

In the next assay the target is T1, HLA-A24:02. Put plainly: peptide-HLA stability, Example 9.
Take MFLKAESKI: the “Observed MHC stability” value amounted to 0.2 h.

In another assay the target is T2, HLA-B07:02. Put plainly: peptide-HLA stability, Example 9.
With QPVLWTTPPL, the “Observed MHC stability” value was 1.4 h.

With KPKRDGYMF, the “Observed MHC stability” value stood at 8.6 h.

As to GPPARVPAV, the “Observed MHC stability” value was 1.6 h.

In the case of KPKRDGYMFL, the “Observed MHC stability” value came to 3.3 h.

Take EPHLALQPL: the “Observed MHC stability” value amounted to 7.2 h.

Take MFATLQRSSL: the “Observed MHC stability” value is 0 h.

With FATLQRSSL, the “Observed MHC stability” value worked out at 0.7 h.

In another assay the target is T3, HLA-A03:01. Kind of assay: peptide-HLA stability, Example 9.
KIMFATLQR: the “Observed MHC stability” value worked out at 5.6 h.

For YMFLKAESK, the “Observed MHC stability” value amounted to 0.3 h.

Consider VLWTTPPLQH, for which the “Observed MHC stability” value is 0.3 h.

Another assay addresses T4, HLA-A11:01. Kind of assay: peptide-HLA stability, Example 9.
KIMFATLQR: the “Observed MHC stability” value is 8.9 h.

In the case of YMFLKAESK, the “Observed MHC stability” value turned out to be 0 h.

For VLWTTPPLQH, the “Observed MHC stability” value is 0 h.

The next assay concerns the target T6, HLA-B08:01 (human).
T6 construct: Stability assay: E. coli-expressed biotinylated heavy chain with 125I-labelled b2m; MS: BAP-tagged HLA in HEK293T cells; Treated as one molecule
Kind of assay: peptide-HLA stability, Example 9.
For FLKAESKIM, the “Observed MHC stability” value turned out to be 1.2 h.

As for IMKPKRDGYM, the “Observed MHC stability” value was determined as 0.4 h.

In the case of EPHLALQPL, the “Observed MHC stability” value is 0 h.

Consider LHFCRSSIM, for which the “Observed MHC stability” value is 0 h.

In the case of ESKIMFATL, the “Observed MHC stability” value came out at 1.3 h.

For MFATLQRSSL, the “Observed MHC stability” value was found to be 0 h.

In the case of FATLQRSSL, the “Observed MHC stability” value was found to be 0 h.

With FLKAESKIMF, the “Observed MHC stability” value is 0 h.

The next assay has as its target T5, HLA-A02:01. Kind of assay: peptide-HLA stability, Example 9.
VLPEPHLAL: the “Observed MHC stability” value stood at 1.1 h.

TLQRSSLWCL: the “Observed MHC stability” value came out at 0.5 h.

On to AIQPVLWTT, for which the “Observed MHC stability” value was 1.5 h.

A further assay deals with T2, HLA-B07:02. Kind of assay: competition vs radiolabeled peptide on purified HLA; measured IC50.
Take KPKRDGYMF: the IC50 came out at 28.2 nM.

Regarding GPPARVPAV, the IC50 came to 282 nM.

Consider KPKRDGYMFL, for which the IC50 stood at 115 nM.

On to MFATLQRSSL, for which the IC50 is 350 nM.

In turn, FATLQRSSL yielded an IC50 of 14 nM.

For a further assay, the target named is T6, HLA-B08:01. The assay is described as above.
In turn, IMKPKRDGYM displayed an IC50 of 40.2 nM.

Regarding LHFCRSSIM, the concentration for half-maximal inhibition (IC50) stood at 167 nM.

For ESKIMFATL, the IC50 was 23.3 nM.

FATLQRSSL came in with a half-maximal inhibitory concentration (IC50) of 27.5 nM.

With FLKAESKIMF, the IC50 turned out to be 90 nM.

A further assay has as its target T5, HLA-A02:01. Described as above.
Turning to TLQRSSLWCL, the IC50 was determined as 281 nM.

The target of a further assay is T1, HLA-A24:02. Put plainly: peptide-HLA affinity, Example 36.
As to EYMANGSLL (also called BTK C481S mutant peptide), the Affinity was found to be 4.96 nM.

Another assay deals with T3, HLA-A03:01. Put plainly: peptide-HLA affinity, Example 36.
Turning to MANGSLLNY (also called BTK C481S mutant peptide), the Affinity was 35.6 nM.

In turn, YMANGSLLNY (also called BTK C481S mutant peptide) gave an Affinity of 95.9 nM.

In another assay the target is T4, HLA-A11:01. Kind of assay: peptide-HLA affinity, Example 36.
The molecule MANGSLLNY (also called BTK C481S mutant peptide) displayed an Affinity of 536 nM.

Regarding YMANGSLLNY (also called BTK C481S mutant peptide), the Affinity is 974 nM.

The next assay deals with T7, HLA-A01:01 (human).
T7 construct: Construct not described
Kind of assay: peptide-HLA affinity, Example 36.
MANGSLLNY (also called BTK C481S mutant peptide) yielded an Affinity of 439 nM.

YMANGSLLNY (also called BTK C481S mutant peptide) registered an Affinity of 13.2 nM.

The target of another assay is T1, HLA-A24:02. Put plainly: peptide-HLA stability, Example 36.
As for EYMANGSLL (also called BTK C481S mutant peptide), the “Stability (1/2 hr)” value worked out at 5.72 h.

The next assay has as its target T3, HLA-A03:01. Kind of assay: peptide-HLA stability, Example 36.
On to MANGSLLNY (also called BTK C481S mutant peptide), for which the “Stability (1/2 hr)” value turned out to be 0.238 h.

Regarding YMANGSLLNY (also called BTK C481S mutant peptide), the “Stability (1/2 hr)” value came to 0.279 h.

The target in a further assay is T7, HLA-A01:01. Put plainly: peptide-HLA stability, Example 36.
Turning to MANGSLLNY (also called BTK C481S mutant peptide), the “Stability (1/2 hr)” value was determined as 0.216 h.

As to YMANGSLLNY (also called BTK C481S mutant peptide), the “Stability (1/2 hr)” value worked out at 0.866 h.

The next assay concerns the target T2, HLA-B07:02. Put plainly: pMHC-I dissociation, 125I-b2m, 37C; experiment 2.
KPKRDGYMF showed a half-life of 9 h.

The molecule GPPARVPAV gave a half-life of 1.8 h.

In the case of KPKRDGYMFL, the half-life was determined as 3.3 h.

For the molecule MFATLQRSSL, the half-life was 0 h.

The molecule FATLQRSSL came in with a half-life of 0.6 h.

The target of the next assay is T6, HLA-B08:01. Kind of assay: pMHC-I dissociation, 125I-b2m, 37C; experiment 2.
On to FLKAESKIM, for which the half-life was 1.5 h.

Molecule IMKPKRDGYM displayed a half-life of 0.4 h.

Consider LHFCRSSIM, for which the half-life was 0 h.

With ESKIMFATL, the half-life was 1.6 h.

For the molecule MFATLQRSSL, the half-life was found to be 0 h.

In turn, FATLQRSSL yielded a half-life of 0 h.

Regarding FLKAESKIMF, the half-life is 0 h.

A further assay addresses T5, HLA-A02:01. Kind of assay: pMHC-I dissociation, 125I-b2m, 37C; experiment 2.
In the case of TLQRSSLWCL, the half-life is 0.5 h.

The target of the next assay is T2, HLA-B07:02. Put plainly: pMHC-I dissociation, 125I-b2m, 37C; experiment 1.
In turn, KPKRDGYMF had a half-life of 8.3 h.

Regarding GPPARVPAV, the half-life is 1.5 h.

Regarding KPKRDGYMFL, the half-life was determined as 3.3 h.

Molecule MFATLQRSSL displayed a half-life of 0 h.

Molecule FATLQRSSL showed a half-life of 0.7 h.

Another assay deals with T6, HLA-B08:01. Put plainly: pMHC-I dissociation, 125I-b2m, 37C; experiment 1.
For FLKAESKIM, the half-life was determined as 0.8 h.

In the case of IMKPKRDGYM, the half-life was found to be 0.4 h.

Regarding LHFCRSSIM, the half-life worked out at 0 h.

Regarding ESKIMFATL, the half-life is 1 h.

The molecule MFATLQRSSL returned a half-life of 0 h.

In turn, FATLQRSSL had a half-life of 0 h.

With FLKAESKIMF, the half-life was determined as 0 h.

For another assay, the target named is T5, HLA-A02:01. Put plainly: pMHC-I dissociation, 125I-b2m, 37C; experiment 1.
In the case of TLQRSSLWCL, the half-life amounted to 0.5 h.

The target of another assay is T2, HLA-B07:02. Put plainly: competition vs radiolabeled peptide on purified HLA; IC50 corrected for peptide concentration.
In turn, KPKRDGYMF had an IC50 of 28.2 nM.

Molecule GPPARVPAV showed an IC50 of 221 nM.

In turn, KPKRDGYMFL registered an IC50 of 98.1 nM.

Consider MFATLQRSSL, for which the 50% inhibitory concentration (IC50) worked out at 267 nM.

The molecule FATLQRSSL registered an IC50 of 14 nM.

Another assay has as its target T5, HLA-A02:01. Described as above.
Turning to TLQRSSLWCL, the IC50 was found to be 118 nM.

Another assay addresses T2, HLA-B07:02. Kind of assay: pMHC-I dissociation, 125I-b2m, 37C; average of 2.
In the case of KPKRDGYMF, the half-life was determined as 8.6 h.

GPPARVPAV yielded a half-life of 1.6 h.

The molecule KPKRDGYMFL returned a half-life of 3.3 h.

Regarding MFATLQRSSL, the half-life came to 0 h.

FATLQRSSL returned a half-life of 0.7 h.

The target in another assay is T6, HLA-B08:01. Kind of assay: pMHC-I dissociation, 125I-b2m, 37C; average of 2.
FLKAESKIM came in with a half-life of 1.2 h.

For the molecule IMKPKRDGYM, the half-life is 0.4 h.

With LHFCRSSIM, the half-life worked out at 0 h.

As to ESKIMFATL, the half-life amounted to 1.3 h.

Molecule MFATLQRSSL showed a half-life of 0 h.

As for FATLQRSSL, the half-life was 0 h.

With FLKAESKIMF, the half-life is 0 h.

The target in another assay is T5, HLA-A02:01. Put plainly: pMHC-I dissociation, 125I-b2m, 37C; average of 2.
As to TLQRSSLWCL, the half-life came to 0.5 h.
